Laboratory results as given in patent publication US20260166139A1.
Values joined by “and” are separate entries in the source; they are usually repeats but may differ in a detail not shown here. Equal values may be shown once.

Tests used:
[1] = molecular target: human CTLA4 (human) (UniProt P16410); assay: ELISA, coat human CTLA4 0.5 ug/ml; antibody 1:81 (start 1 ug/ml)
[2] = molecular target: CTLA4-mFc; assay: competitive ELISA, competitor B7-1; control run with 8D2H2L15
[3] = molecular target: CTLA4-mFc; assay: competitive ELISA, B7/1-hFc coated (competitor), CTLA4-mFc added; antibody 5 µg/ml diluted 1:729
[4] = molecular target: CTLA4-mFc; assay: competitive ELISA, CTLA4-mFc coated, competitor B7/2-His; antibody 1 µg/ml diluted 1:729
[5] = molecular target: human CTLA4 (human) (UniProt P16410); assay: ELISA on coated CTLA4, source Human (row of 8D2H2L15)
[6] = molecular target: CTLA4-mFc; assay: competitive ELISA, CTLA4-mFc coated, competitor B7/2-His; antibody 1.5 µg/ml diluted 1:3
[7] = molecular target: CTLA4-mFc; assay: competition ELISA, coat B7/1-hFc 0.2 ug/ml (competitor), CTLA4-mFc 0.3 ug/ml detected; antibody 1:9 (start 3 ug/ml)
[8] = molecular target: CTLA4-mFc; assay: competitive ELISA, CTLA4-mFc coated, competitor B7/2-His; antibody 1 µg/ml diluted 1:27
[9] = molecular target: murine CTLA4 (murine) (UniProt P09793); assay: ELISA on coated CTLA4, source Mouse (row of 8D2)
[10] = molecular target: CTLA4-mFc; assay: competitive ELISA, CTLA4-mFc coated, competitor B7/2-His; antibody 0 (no antibody)
[11] = molecular target: human CTLA4 (human) (UniProt P16410); assay: ELISA, coat human CTLA4 0.5 ug/ml; antibody 1:3 (start 1 ug/ml)
[12] = molecular target: CTLA4-mFc; assay: competitive ELISA, competitor B7-1; control run with 8D2H2L2
[13] = molecular target: human CTLA4 (human) (UniProt P16410); assay: ELISA, coat CTLA4 0.5 ug/ml; antibody 1:9 (start 1 ug/ml)
[14] = molecular target: human CTLA4 (human) (UniProt P16410); assay: ELISA on coated CTLA4, source Human (row of 8D2H3L3)
[15] = molecular target: CTLA4-mFc; assay: competitive ELISA, competitor B7-2; control run with 8D2H2L2
[16] = molecular target: CTLA4-mFc; assay: competitive ELISA, CTLA4-mFc coated, competitor B7/2-His; antibody 3 µg/ml
[17] = molecular target: human CTLA4 (human) (UniProt P16410); assay: ELISA, coat human CTLA4 0.5 ug/ml; antibody 1:243 (start 1 ug/ml)
[18] = molecular target: monkey CTLA4-hFc (monkey); assay: ELISA on coated CTLA4, source Monkey (row of 8D2H2L2)
[19] = molecular target: human CTLA4 (human) (UniProt P16410); assay: ELISA, coat CTLA4 0.5 ug/ml; antibody 1:27 (start 1 ug/ml)
[20] = molecular target: CTLA4-mFc; assay: competitive ELISA, CTLA4-mFc coated, competitor B7/2-His; antibody 1 µg/ml diluted 1:243
[21] = molecular target: CTLA4-mFc; assay: competitive ELISA, CTLA4-mFc coated, competitor B7/2-His; antibody 1.5 µg/ml
[22] = molecular target: human CTLA4 (human) (UniProt P16410); assay: ELISA, coat human CTLA4 0.5 ug/ml; antibody 1:9 (start 1 ug/ml)
[23] = molecular target: CTLA4-mFc; assay: competition ELISA, coat B7/1-hFc 0.2 ug/ml (competitor), CTLA4-mFc 0.3 ug/ml detected; antibody 3 ug/ml
[24] = molecular target: monkey CTLA4-hFc (monkey); assay: ELISA, coat monkey CTLA4-hFc 0.25 ug/ml; antibody 0 (blank)
[25] = molecular target: human CTLA4 (human) (UniProt P16410); assay: ELISA, coat human CTLA4 0.5 ug/ml; antibody 1:81 (start 1 ug/ml); remark: listed apart in the source
[26] = molecular target: murine CTLA4 (murine) (UniProt P09793); assay: ELISA on coated CTLA4, source Mouse (row of 8D2H1L1)
[27] = molecular target: CTLA4-mFc; assay: competitive ELISA, CTLA4-mFc coated, competitor B7/2-His; antibody 1.5 µg/ml diluted 1:27
[28] = molecular target: monkey CTLA4-hFc (monkey); assay: ELISA, coat monkey CTLA4-hFc 0.25 ug/ml; antibody 1:81 (start 1 ug/ml)
[29] = molecular target: monkey CTLA4-hFc (monkey); assay: ELISA, coat monkey CTLA4-hFc 0.25 ug/ml; antibody 1 ug/ml
[30] = molecular target: murine CTLA4 (murine) (UniProt P09793); assay: ELISA on coated CTLA4, source Mouse (row of 8D2(Re))
[31] = molecular target: CTLA4-mFc; assay: competitive ELISA, competitor B7-2; control run with 8D2H2L17
[32] = molecular target: human CTLA4 (human) (UniProt P16410); assay: ELISA, coat CTLA4 0.5 ug/ml; antibody 1:3 (start 1 ug/ml)
[33] = molecular target: CTLA4-mFc; assay: competitive ELISA, B7/1-hFc coated (competitor), CTLA4-mFc added; antibody 5 µg/ml
[34] = molecular target: human CTLA4 (human) (UniProt P16410); assay: ELISA, coat human CTLA4 0.5 ug/ml; antibody 1:3 (start 1 ug/ml); remark: listed apart in the source
[35] = molecular target: human CTLA4 (human) (UniProt P16410); assay: ELISA, coat human CTLA4 0.5 ug/ml; antibody 0 (blank)
[36] = molecular target: CTLA4-mFc; assay: competitive ELISA, CTLA4-mFc coated, competitor B7/2-His; antibody 3 µg/ml diluted 1:3
[37] = molecular target: CTLA4-mFc; assay: competitive ELISA, CTLA4-mFc coated, competitor B7/2-His; antibody 3 µg/ml diluted 1:81
[38] = molecular target: CTLA4-mFc; assay: competitive ELISA, CTLA4-mFc coated, competitor B7/2-His; antibody 1 µg/ml diluted 1:9

Sequence of CTLA4-mFc (chain, as listed by the source limits assumed): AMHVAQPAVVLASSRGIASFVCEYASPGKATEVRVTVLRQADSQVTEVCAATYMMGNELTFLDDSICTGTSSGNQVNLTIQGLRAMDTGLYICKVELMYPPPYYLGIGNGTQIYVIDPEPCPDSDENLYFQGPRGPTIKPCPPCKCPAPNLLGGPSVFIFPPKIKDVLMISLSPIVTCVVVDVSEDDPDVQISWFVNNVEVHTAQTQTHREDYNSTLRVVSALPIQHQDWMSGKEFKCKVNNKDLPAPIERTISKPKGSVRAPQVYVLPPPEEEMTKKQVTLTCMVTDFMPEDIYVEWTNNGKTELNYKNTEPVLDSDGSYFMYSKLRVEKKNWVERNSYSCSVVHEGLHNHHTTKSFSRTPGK
Sequence of human CTLA4 (human) (P16410 36-161 limits assumed): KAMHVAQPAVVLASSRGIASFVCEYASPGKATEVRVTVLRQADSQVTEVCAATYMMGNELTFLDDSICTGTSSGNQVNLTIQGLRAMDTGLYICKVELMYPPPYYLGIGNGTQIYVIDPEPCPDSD
Sequence of control antibody 11.2.1 (VH): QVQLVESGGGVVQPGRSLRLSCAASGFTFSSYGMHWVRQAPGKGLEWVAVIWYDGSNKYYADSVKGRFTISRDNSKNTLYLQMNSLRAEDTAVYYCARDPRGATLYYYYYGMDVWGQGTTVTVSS
Sequence of control antibody 11.2.1 (VL): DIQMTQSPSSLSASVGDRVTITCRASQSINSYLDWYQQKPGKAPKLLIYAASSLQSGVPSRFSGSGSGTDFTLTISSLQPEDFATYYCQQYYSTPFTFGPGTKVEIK

For control antibody 11.2.1, the absorbance at 450 nm [1] was 1.25 and 1.27, the EC50 [2] was 2.61 nM and the absorbance at 450 nm [3] was 0.909 and 0.793. For the same substance, the absorbance at 450 nm [4] was 0.87 and 0.85, the EC50 [5] was 0.075 nM and the absorbance at 450 nm [6] was 0.437 and 0.348. For the same substance, the absorbance at 450 nm [7] was 0.381 and 0.485, the absorbance at 450 nm [8] was 0.57 and the EC50 [9] was 0.023 nM. The absorbance at 450 nm [10] was 1.19 and 1.1, the absorbance at 450 nm [11] was 3.5 and 3.48 and the EC50 [12] was 1.07 nM. The absorbance at 450 nm [13] was 2.69 and 2.44, the EC50 [14] was 0.09 nM and the EC50 [15] was 0.172 nM. The absorbance at 450 nm [16] was 0.492 and 0.442, the absorbance at 450 nm [17] was 0.536 and 0.552 and the EC50 [18] was 0.075 nM. The absorbance at 450 nm [19] was 2.13 and 2.28, the absorbance at 450 nm [20] was 0.84 and 0.85 and the absorbance at 450 nm [21] was 0.372 and 0.494. For the same substance, the absorbance at 450 nm [22] was 3.21 and 3.19, the absorbance at 450 nm [23] was 0.101 and 0.105 and the absorbance at 450 nm [24] was 0.048 and 0.051. The absorbance at 450 nm [25] was 0.499 and 0.426, the EC50 [26] was 0.023 nM and the absorbance at 450 nm [27] was 0.622 and 0.529. For the same substance, the absorbance at 450 nm [28] was 0.297 and 0.313, the absorbance at 450 nm [29] was 1.72 and 1.63 and the EC50 [30] was 0.023 nM. For the same substance, the EC50 [31] was 0.349 nM, the absorbance at 450 nm [32] was 2.56 and 2.66 and the absorbance at 450 nm [33] was 0.08 and 0.089. For the same substance, the absorbance at 450 nm [34] was 1.82 and 2.05, the absorbance at 450 nm [35] was 0.057 and 0.061 and the absorbance at 450 nm [36] was 0.387 and 0.402. The absorbance at 450 nm [37] was 1.12 and 0.965 and the absorbance at 450 nm [38] was 0.17 and 0.16.
